Results published in US10925971B2, “Methods of treating PRLR positive breast cancer” (Regeneron Pharmaceuticals, Inc., priority 2016, dated 2021).

How the values were obtained:
[1] = system: PRLR in HEK293/PRLR/STAT5-Luc cells; experiment: STAT5 luciferase reporter assay, blocking of PRL-induced PRLR signaling (2 nM PRL); type: cell-based; details: PRL dose response, no antibody; read-out: EC50, stimulation of human PRLR signaling
Protocol: The capacity of H1H6958N2 and H1H6958N2-DM1 to block human PRL-induced PRLR signaling was determined in a luciferase reporter assay using the HEK293 cell line engineered to constitutively express PRLR and stably transduced with a lucifierase reporter construct comprising 5 tandem STAT5 binding sites derived from the promoter of the human interleukin-2 receptor α gene [STAT5 response element (×5)-luciferase] (John et al., The EMBO Journal, 1996, 15(20): 5627-5635). […] Plates were incubated at 37° C. and 5% CO2 for 5 hours and equilibrated to room temperature for 10 minutes. Luciferase activity was again measured using the ONE-Glo substrate and measuring luminescence.

[2] = molecular target: human PRLR (dimeric) binding to PRL (Homo sapiens, UniProt P16471); experiment: ELISA-based blocking of PRLR binding to immobilized human PRL; details: plates coated with 1 μg/mL PRL; read-out: EC50, human PRLR binding to captured PRL
Sequence of human PRLR (dimeric) binding to PRL (P16471 with tags, fused parts or gaps limits assumed): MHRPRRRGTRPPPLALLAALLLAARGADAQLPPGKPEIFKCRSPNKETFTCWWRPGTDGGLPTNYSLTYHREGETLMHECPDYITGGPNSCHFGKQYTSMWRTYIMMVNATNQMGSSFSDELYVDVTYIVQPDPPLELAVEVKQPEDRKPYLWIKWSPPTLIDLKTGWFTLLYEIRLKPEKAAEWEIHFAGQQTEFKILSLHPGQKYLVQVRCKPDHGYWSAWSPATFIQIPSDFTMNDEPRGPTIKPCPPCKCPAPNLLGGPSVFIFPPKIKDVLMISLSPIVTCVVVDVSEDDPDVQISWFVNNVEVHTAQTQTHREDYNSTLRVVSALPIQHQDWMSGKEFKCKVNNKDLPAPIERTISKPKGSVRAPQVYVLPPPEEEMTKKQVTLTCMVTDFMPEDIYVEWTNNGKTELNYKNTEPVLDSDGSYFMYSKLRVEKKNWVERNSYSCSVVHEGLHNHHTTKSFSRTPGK
Protocol: (§1) ELISA-based blocking assays were developed to determine the ability of H1H6958N2 and H1H6958N2-DM1 to block binding of human and cynomolgus monkey PRLR to immobilized human PRL. Dimeric forms of human or cynomolgus monkey (Macaca fascicularis) PRLR and monomeric human PRL were used in this assay. To generate initial dose-response curves, human or monkey PRLR at concentrations ranging from 3.38 pM to 200 nM was added to the plates previously coated in 1 μg/mL PRL. After 1-hour incubation, captured PRLR was detected with HRP-conjugated goat anti-Fcγ antibody and visualized with TMB colorimetric substrate by measuring absorbance at 450 nm. […] Mixtures were then added to plates coated with in 1 μg/mL PRL and captured PRLR was detected as described above. Data were analyzed using a four-parameter logistic equation over an 11-point response curve in GraphPad Prism software and IC50 values were calculated.

[3] = molecular target: cynomolgus monkey PRLR (dimeric) binding to PRL; experiment: as above; design: species or system Macaca fascicularis; details: plates coated with 1 μg/mL PRL; read-out: EC50, monkey PRLR binding to captured PRL
Sequence of cynomolgus monkey PRLR (dimeric) binding to PRL (as listed by the source): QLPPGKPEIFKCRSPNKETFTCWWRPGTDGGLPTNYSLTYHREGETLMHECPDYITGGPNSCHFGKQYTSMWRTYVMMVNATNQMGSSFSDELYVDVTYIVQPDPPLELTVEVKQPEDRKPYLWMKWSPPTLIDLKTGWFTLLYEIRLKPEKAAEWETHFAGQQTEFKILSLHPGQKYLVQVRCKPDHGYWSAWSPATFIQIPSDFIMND
Protocol: as §1

SK-BR-3 cells = experiment: In vitro cell viability (cell kill) assay; type: cell-based, human; details: Table 16
MCF7 (MCF7/ATCC) cells = experiment: In vitro cell viability (cell kill) assay, nuclear counts; type: cell-based, human; details: MCF7; Table 16
Description: (§2) PRLR-overexpressing cells, including HEK293, PC3, MCF7 and NCI-N87, were generated to assess the ability of anti-PRLR conjugated antibodies to reduce cell viability. For comparative purposes, PC3 and T47D cells with overexpressed ErbB2 were also generated, as well as an MCF7 cell line over-expressing both hPRLR and hErbB2. Briefly, Lipofectamine® 2000-mediated transfection methodology was utilized to generate HEK293 cells expressing human PRLR (HEK293/hPRLR) or human ErbB2 (HEK293/hErbB2). Lipofectamine LTX with Plus Reagent was used to generate PC3 cells expressing human PRLR (PC3/hPRLR) or human ErbB2 (PC3/hErbB2). Lentiviral-mediated transduction was utilized to generate MCF7 cells expressing human PRLR (MCF7/hPRLR), NCI-N87 cells expressing human PRLR (NCI-N87/hPRLR), T47D cells over-expressing human ErbB2 (T47D/hErbB2), and MCF7 cells expressing both human PRLR and human ErbB2 (MCF7/hPRLR/hErbB2). All lines were selected for at least two weeks in complete growth media plus appropriate selection reagents. Stably expressing populations were enriched for PRLR expression via FACS using the anti PRLR antibody Control I.
(§3) Next, the ability of anti-PRLR-DM1 antibody-drug conjugates (i.e., anti-PRLR antibodies conjugated to DM1 via a non-cleavable linker [SMCC]) to reduce cell viability was determined using in vitro cell based assays. Cells were seeded in PDL-coated 96 well plates at 1500 to 10000 cells per well in complete growth media and allowed to grow overnight. For cell viability curves, ADCs or free DM1 (as the methyl disulfide derivative DM1-SMe) were added to the cells at final concentrations ranging from 500 nM to 5 pM and incubated for 3 days. The 293, PC3 and T47D cells were incubated with CCK8 (Dojindo, Rockville, Md.) for the final 1-3 hours and the absorbance at 450 nm (OD450) was determined on a Flexstation3 (Molecular Devices, Sunnyvale, Calif.). MCF7 cells were treated with Hoechst 33342 nuclear stain while being fixed with 4% formaldehyde. Images were acquired on the ImageXpress micro XL (Molecular Devices, Sunnyvale, Calif.) and nuclear counts were determined via Columbus image analysis software (Perkin Elmer, Shelton, Conn.). Background OD450 values (PC3, 293, and T47D) or nuclear counts (MCF7) from digitonin (40 nM) treated cells was subtracted from all wells and viability was expressed as a percentage of the untreated controls. IC50 values were determined from a four-parameter logistic equation over a 10-point response curve (GraphPad Prism).

NCI-N87/hPRLR cells = experiment: In vitro cell viability (cell kill) assay; type: cell-based, human; details: NCI-N87/PRLR; Table 17
Description: PRLR-overexpressing cells, including HEK293, PC3, MCF7 and NCI-N87, were generated to assess the ability of anti-PRLR conjugated antibodies to reduce cell viability. For comparative purposes, PC3 and T47D cells with overexpressed ErbB2 were also generated, as well as an MCF7 cell line over-expressing both hPRLR and hErbB2. Briefly, Lipofectamine® 2000-mediated transfection methodology was utilized to generate HEK293 cells expressing human PRLR (HEK293/hPRLR) or human ErbB2 (HEK293/hErbB2). Lipofectamine LTX with Plus Reagent was used to generate PC3 cells expressing human PRLR (PC3/hPRLR) or human ErbB2 (PC3/hErbB2). […]
Next, the ability of anti-PRLR-DM1 antibody-drug conjugates (i.e., anti-PRLR antibodies conjugated to DM1 via a non-cleavable linker [SMCC]) to reduce cell viability was determined using in vitro cell based assays. […] The 293, PC3 and T47D cells were incubated with CCK8 (Dojindo, Rockville, Md.) for the final 1-3 hours and the absorbance at 450 nm (OD450) was determined on a Flexstation3 (Molecular Devices, Sunnyvale, Calif.). […] Images were acquired on the ImageXpress micro XL (Molecular Devices, Sunnyvale, Calif.) and nuclear counts were determined via Columbus image analysis software (Perkin Elmer, Shelton, Conn.). […] IC50 values were determined from a four-parameter logistic equation over a 10-point response curve (GraphPad Prism).

MCF7/PRLR tumors = experiment: MCF7/PRLR breast cancer xenograft, tumor size and tumor growth inhibition; type: in vivo, NCr nude mice; details: for Average Tumor Growth Inhibition (%) / Final Tumor size mm^3 (mean ± SEM): MCF7/PRLR tumors TRIAL #1, NCr Nude mice, Day 52
Procedure, shortened: (§4)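 MCF7/PRLR cells in mammary fat pad of female NCr nude mice, PC3/PRLR in flank of male SCID, T47D #11 in flank of female CB17 SCID, all with estrogen pellets.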

PC3/hErbB2 cells = experiment: In vitro cell viability (cell kill) assay; type: cell-based, human; details: PC3/ErbB2; Table 15
Description: as §2, §3
(§5) The potency of anti-PRLR conjugated antibodies compared with a similarly conjugated antibody to the co-expressed ErbB2 cell surface target was also assessed.

HEK293/hErbB2 cells = experiment: In vitro cell viability (cell kill) assay; type: cell-based, human; details: 293/ErbB2; Table 14
Description: as §2, §3, §5

MCF7/hPRLR/hErbB2 cells = experiment: In vitro cell viability (cell kill) assay; type: cell-based, human; details: MCF/PRLR + ErbB2; Table 17
Description: as §2, §3, §5

PRLR expressing cells = experiment: In vitro cell viability (cell kill) assay, several cell backgrounds; type: cell-based, human; details: PC3/hPRLR and MCF7/hPRLR cell lines
Description: as §2, §3

PC3/PRLR tumors = experiment: PC3/PRLR xenograft, tumor size and tumor growth inhibition; type: in vivo, SCID mice; details: for Average Tumor Growth Inhibition (%) / Final Tumor size mm^3 (mean ± SEM): PC3/PRLR tumors TRIAL #1, SCID mice, Day 63
Procedure, shortened: as §4

[4] = system: HEK293/hPRLR (293/hPRLR) cells; experiment: In vitro cell viability (cell kill) assay, CCK8; type: cell-based, human
Procedure, shortened: (§6)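 Readout: CCK8 absorbance at 450 nm (293, PC3) or Hoechst-stained nuclear counts after formaldehyde fixation (MCF7). hPRLR-expressing lines, seeded overnight, got DM1 ADCs (non-cleavable SMCC linker) or DM1-SMe, 500 nM–5 pM, 3 days. Viability as % untreated after digitonin background; IC50 by four-parameter logistic.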

PC3 cells = experiment: In vitro cell viability (cell kill) assay, CCK8; type: cell-based, human; details: Table 11, 3 days
Procedure, shortened: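 Cells stably overexpressing human PRLR (transfected or lentiviral, FACS-enriched) were treated for 3 days with anti-PRLR-SMCC-DM1 ADCs or free DM1-SMe at 500 nM to 5 pM. HEK293 and PC3 viability was read by CCK8 OD450; MCF7 by Hoechst nuclear counts. Digitonin background subtracted; % of untreated; IC50 from 10-point four-parameter fit.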

HEK293 (293) cells = experiment: In vitro cell viability (cell kill) assay, CCK8; type: cell-based, human
Procedure, shortened: as §6

T47D cells [5] = experiment: In vitro cell viability (cell kill) assay, CCK8; type: cell-based, human; details: for % Kill: T47D
Protocol: as §3

T47D cells [6] = experiment: Cell kill in the presence of PRLR ligand PRL (15 nM); type: cell-based, human; details: Table 13, + 15 nM PRL
Protocol: as §3

B1: PRL: monomeric human prolactin, ligand of PRLR (protein)
chain: LPICPGGAARCQVTLRDLFDRAVVLSHYIHNLSSEMFSEFDKRYTHGRGFITKAINSCHTSSLATPEDKEQAQQMNQKDFLSLIVSILRSWNEPLYHLVTEVRGMQEAPEAILSKAVEIEEQTKRLLEGMELIVSQVHPETKENEIYPVWSGLPSLQMADEESRLSAYYNLLHCLRRDSHKIDNYLKLLKCRIIHNNNC
EC50 [1]: 2.1 nM
EC50 [2]: 4.9 nM
EC50 [3]: 5.7 nM

B2: H1H6953N-DM1 (conjugate)
VH: EVQLLESGGGLVQPGGTLRLSCAASGFTFSAYAMSWVRQAPGKGLEWVSSINVRAGDTYYADSVKGRFTISRDNSKNTLFLLMNSLRAEDTAAYYCAKARYSSNWGFDFWGQGTLVTVSS
VL: DIVMTQSPDSLTVSLGARTTINCQSSQTILHSSNNHNYLAWYQQKPGLPPKLLIYWSSTRESGVPDRFSGSGSGTDFTLTISSLQAEDVAIYYCQQYSNTPYTFGQGTKLEIN
% Kill (SK-BR-3 cells): 77%
% Kill (MCF7 (MCF7/ATCC) cells): 74%
% Kill (NCI-N87/hPRLR cells): 94%
Average Tumor Growth Inhibition (%) (MCF7/PRLR tumors; multi-dose 5 mg/kg): 120%
Final Tumor size mm^3 (mean ± SEM) (MCF7/PRLR tumors; multi-dose 5 mg/kg): 107 ± 45 mm^3
Average Tumor Growth Inhibition (%) (MCF7/PRLR tumors; multi-dose 15 mg/kg): 133%
Final Tumor size mm^3 (mean ± SEM) (MCF7/PRLR tumors; multi-dose 15 mg/kg): 0 ± 0 mm^3
MCF7/PRLR tumor growth (MCF7/PRLR tumors; first multi-dose trial, 5 and 15 mg/kg): potently inhibited MCF7/PRLR tumor growth
% Kill (PC3/hErbB2 cells): 73%
% Kill (HEK293/hErbB2 cells): 98%
IC50 (HEK293/hErbB2 cells): 120 nM
% Kill (MCF7/hPRLR/hErbB2 cells): 77%
cell killing, non-cleavable DM1 ADCs versus cleavable MMAE ADCs (PRLR expressing cells): nearly equivalent cell killing
Average Tumor Growth Inhibition (%) (PC3/PRLR tumors; multi-dose 5 mg/kg): 23%
Final Tumor size mm^3 (mean ± SEM) (PC3/PRLR tumors; multi-dose 5 mg/kg): 1058 ± 138 mm^3
Average Tumor Growth Inhibition (%) (PC3/PRLR tumors; multi-dose 15 mg/kg): 39%
Final Tumor size mm^3 (mean ± SEM) (PC3/PRLR tumors; multi-dose 15 mg/kg): 892 ± 53 mm^3
PC3/PRLR tumor growth (PC3/PRLR tumors; multi-dose, especially at 15 mg/kg): demonstrated inhibition of tumor growth
% Kill ([4]; 293/PRLR, Table 14): 93%
percent killing ([4]; 293/hPRLR cells): 93%
% Kill (PC3 cells): 78%
IC50 (PC3 cells): 110 nM
% Kill (HEK293 (293) cells; 293, Table 11, 3 days): 88%
% Kill (HEK293 (293) cells; 293, Table 14): 92%
percent killing (T47D cells [5]; T47D cells): 78%
% Kill (T47D cells [5]; Table 16): 78%

B3: H1H6782P-SMCC-DM1 (conjugate)
VH: EVQLVESGGGLVQPGRSLRLSCAASGFTFDDYAMHWVRQAPGKGLEWVSGIIWNSGHIGYGDSVKGRFTISRDNAKKSLYLQMNSLRAEDTALYYCARDSGRYQSYFDYWGQGTLVTVSS
VL: DIQMTQSPSTLSASVGDRVTITCRASHIISSWLAWYQQKPGKAPKVLIFKASSLESGVPSRFSGSGSGTEFTLTISSLQPDDFATYYCQQYNTYSRTFGQGTKVEIK
% Kill (T47D cells [6]): 97%
% Kill (HEK293 (293) cells; HEK293, Table 13, + 15 nM PRL): 78%
% Kill (HEK293 (293) cells; HEK293, Table 13, without PRL): 83%
% Kill (T47D cells [5]; Table 13, without PRL): 98%
